# From US20250207140
# Molecular target: SARS-CoV-2 spike protein (original strain) (SARS-CoV-2) (UniProt P0DTC2)
# Assay: flow
substance,measurement,value
Control (-) Apt targeting CD8,Kd,312 nM
